Laboratory results: patent US20140341922A1, “Method for Overcoming Tolerance to Targeted Anti-Cancer Agent” (SUN R&DB Foundation, priority 2011, published 2014)
“Also recorded” adds a separate entry of the source.

Key:
[1] = system: 13 HNSCC and 6 NSCLC cells; experiment: MTS viability assay in PCPs and UAPs; format: cell-based, human; conditions: PCPs, 25 μg/ml, 7 days
Experimental: Cells were cultured in 96-well poly(poly-2-hydroxyethyl methacrylate [HEMA])-coated plates (PCPs) or ultra-low attached plates (UAPs). Control IgG1 (25 μg/ml), cixutumumab (25 μg/ml), PP2 (10 μM), and an integrin β3 neutralizing antibody B3A (10 μg/ml) were diluted in culture media containing 10% FBS or IGF-1 and treated alone or in combination. To examine the effect on cancer cell proliferation, a 3-(4,5-dimethylthiazol-2-yl)-2,5-diphenyltetrazolium bromide (MTT) or 3-(4,5-dimethylthiazol-2-yl)-5-(3-carboxymethoxyphenyl)-2-(4-sulfophenyl)-2H-tetrazolium (MTS) assay was performed, and to evaluate the effect on anchorage-independent colony formation, a soft agar colony formation assay was performed according to a method in our previous report (Morgillo et al., 2006).
The PCPs were prepared according to a previously reported method (Fukazawa et al., 1995). In brief, tissue culture plates were collated twice with poly-(HEMA) (10 mg/ml in 95% ethanol) at 37° C. and then washed with phosphate-buffered saline (PBS) several times.
HNSCC and NSCLC cells grown in PCPs and UAPs were treated with cixutumumab (25 μg/ml) for 7 days. Each bar represents mean±SD of 6 wells of a single representative experiment.

IGF-1R = biological target: T1, IGF-1R (Homo sapiens, UniProt P08069); experiment: IGF-1-induced IGF-1R phosphorylation, Western blot; format: cell-based; conditions: LN686 cells, cixutumumab 6 h, then 100 ng/ml IGF-1 for 30 min
T1 construct: endogenous in cells; host or cells: LN686 cells
Experimental: Preparation of total cell lysates, Western blot analysis, and immunoprecipitation were performed according to methods described in our previous report (Morgillo et al., 2006).
LN686 cells were treated with increasing concentrations of cixutumumab for 6 h, and then stimulated with 100 ng/ml IGF-1 for 30 min.

integrin β3 = experiment: Immunoprecipitation of integrin β3 / β1 with Src, FAK, p85; format: cell-based, human
Experimental: Total cell lysates were immunoprecipitated with antibodies against integrin β3, integrin β1, or IgG. The precipitates with protein A agarose were resolved by sodium dodecyl sulfate-polyacrylamide gel electrophoresis (SDS-PAGE) and transferred to a polyvinylidene difluoride (PVDF) membrane. Western blot analysis was performed using specific Abs described as follows, and antigen-antibody complexes were visualized using enhanced chemiluminescence plus kits (Amersham Biosciences, Piscataway, N.J.).
The LN686 cells grown in PCP were treated with cixutumumab (25 μg/ml) for indicated times prior to stimulation with 10% FBS (FIGS. 14 and 15) or IGF-1 (100 ng/ml) (FIGS. 16 and 17) in the presence or absence of anti-human IGF-1 neutralizing monoclonal antibody (αIGF-1) (FIGS. 15 and 16) for indicated times (FIG. 16) or for 30 min (FIGS. 14, 15, and 17). Immunoprecipitation with whole proteins or integrin β3 antibodies was performed on the presented proteins, and expression of the proteins was analyzed by western blot analysis.

[2] = system: recombinant soluble integrin β3 (rβ3) binding to IGF-1; experiment: ELISA-type integrin binding assay on IGF-1-coated plates; conditions: 2 h
Experimental: IGF-1 (1 or 2 μg) was coated onto wells in 96-well microtiter plates and incubated with recombinant integrin β3 (0.5 μg/ml) and/or IGF-1R (0.1 or 0.5 μg/ml) protein diluted in 1 mM MnCl2-added HEPES-Tyrode buffer at room temperature for 2 h in the presence or absence of cixutumumab (10 μg/ml). Binding of integrin β3 and/or IGF-1R was detected by enzyme immunoassay using anti-His or anti-IGF-1R mAbs and avidin-labeled alkaline phosphatase-conjugated anti-mouse or anti-rabbit IgGs.
Secondly, the present inventors performed Enzyme-Linked ImmunoSorbent Assay-type integrin binding assay. Specifically, 96-well microtiter plates coated with IGF-1 were recombinant soluble IGF-1R (rIGF-1R; 5 μg/ml) or recombinant soluble integrin β3 (rβ3; 5 μg/ml), alone or in combination, in the presence or absence of cixutumumab (25 μg/ml) for 2 h. Bound IGF-1R (left) and integrin β3 (middle, right) were identified using anti-IGF1R and anti-His mAbs, respectively. The data are shown as the mean±SD of triplicate experiments (*P<0.05; **P=0.01; ***P<0.001).

T1 sequence (P08069 31-1367): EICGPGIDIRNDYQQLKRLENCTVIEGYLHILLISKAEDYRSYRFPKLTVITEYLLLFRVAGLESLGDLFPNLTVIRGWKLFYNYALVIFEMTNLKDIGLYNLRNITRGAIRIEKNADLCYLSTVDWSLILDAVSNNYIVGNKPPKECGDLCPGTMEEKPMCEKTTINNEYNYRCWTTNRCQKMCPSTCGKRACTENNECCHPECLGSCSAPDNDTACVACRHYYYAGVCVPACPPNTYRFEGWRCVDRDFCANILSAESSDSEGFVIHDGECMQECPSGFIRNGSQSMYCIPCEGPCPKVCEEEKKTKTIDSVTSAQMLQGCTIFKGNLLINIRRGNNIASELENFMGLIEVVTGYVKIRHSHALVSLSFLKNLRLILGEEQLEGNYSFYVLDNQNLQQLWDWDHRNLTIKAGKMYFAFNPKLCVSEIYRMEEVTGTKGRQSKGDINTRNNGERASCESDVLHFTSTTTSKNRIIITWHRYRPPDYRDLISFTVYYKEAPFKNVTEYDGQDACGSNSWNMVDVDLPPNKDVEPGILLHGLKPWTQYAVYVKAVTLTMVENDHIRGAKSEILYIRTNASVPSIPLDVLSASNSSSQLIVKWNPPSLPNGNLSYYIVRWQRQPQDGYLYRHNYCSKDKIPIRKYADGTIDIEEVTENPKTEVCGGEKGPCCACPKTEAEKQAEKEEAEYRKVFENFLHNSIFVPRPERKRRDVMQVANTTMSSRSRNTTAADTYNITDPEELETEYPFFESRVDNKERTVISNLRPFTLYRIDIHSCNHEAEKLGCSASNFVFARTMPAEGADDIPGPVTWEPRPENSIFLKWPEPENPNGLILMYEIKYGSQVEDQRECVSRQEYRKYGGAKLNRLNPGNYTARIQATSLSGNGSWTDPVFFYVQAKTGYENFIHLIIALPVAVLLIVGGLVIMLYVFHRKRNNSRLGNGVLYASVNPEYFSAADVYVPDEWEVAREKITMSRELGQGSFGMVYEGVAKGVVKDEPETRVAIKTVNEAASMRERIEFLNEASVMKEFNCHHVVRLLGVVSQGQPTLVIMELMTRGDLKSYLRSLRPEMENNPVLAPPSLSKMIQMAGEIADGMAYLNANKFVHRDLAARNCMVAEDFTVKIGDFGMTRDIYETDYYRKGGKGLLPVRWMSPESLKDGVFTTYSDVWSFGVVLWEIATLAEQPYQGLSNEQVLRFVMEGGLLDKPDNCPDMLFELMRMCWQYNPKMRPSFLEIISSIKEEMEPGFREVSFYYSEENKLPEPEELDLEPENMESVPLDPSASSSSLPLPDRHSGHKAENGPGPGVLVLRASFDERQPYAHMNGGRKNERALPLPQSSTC

In the case of “cixutumumab: humanized mAb targeting IGF-1R, provided by ImClone Systems”, the inhibition in viability ([1]; 7 HNSCC and 2 NSCLC cell lines (red, resistant)) is reported as “less than 20%”, the inhibition in viability ([1]; remaining 2 HNSCC and 2 NSCLC cell lines (black, sensitive)) is reported as “more than 60%” and the “IGF-1-induced IGF-1R phosphorylation” value (IGF-1R) is reported as “markedly inhibited; also recorded: concentration-dependent inhibitory effect”. The “FBS-induced associations between integrin β3 and Src or p85 and phosphorylation of FAK and Src” value (integrin β3; LN686 in PCP, 25 μg/ml, time-dependent) was “enhanced”, the “associations between integrin β1 and p-Src (Y416) or p-FAK (Y861)” value (integrin β3; after IGF-1 stimulation, cixutumumab pretreatment) was “did not affect” and the “ablation of IGF-1-rβ3 interaction by rIGF-1R” value [2] was “markedly blocked”.
